Measurements reported in paper doi:10.1101/2021.01.28.428001 (bioRxiv, 2021).
Each block holds one molecule with its values, some of them ahead of it.

Tests used:
[1] = target: 2xFLAG-MBP-CYT (cytosolic domain of NOMO1 fused to maltose binding protein) (human); assay: SEC
SEC-MALS = target: the molecule itself; assay: SEC-MALS

- stoichiometry N [1]: 2
Molecule: 2xFLAG-MBP-CYT (cytosolic domain of NOMO1 fused to maltose binding protein) (domain or fragment)

B1: Nodal Modulator 1 (NOMO1), full length, with C-terminal FLAG tag (natural protein, human, UniProt Q15155 32-1222, looked up)
chain: SEDIVVGCGGFVKSDVEINYSLIEIKLYTKHGTLKYQTDCAPNNGYFMIPLYDKGDFILKIEPPLGWSFEPTTVELHVDGVSDICTKGGDINFVFTGFSVNGKVLSKGQPLGPAGVQVSLRNTGTEAKIQSTVTQPGGKFAFFKVLPGDYEILATHPTWALKEASTTVRVTNSNANAASPLIVAGYNVSGSVRSDGEPMKGVKFLLFSSLVTKEDVLGCNVSPVPGFQPQDESLVYLCYTVSREDGSFSFYSLPSGGYTVIPFYRGERITFDVAPSRLDFTVEHDSLKIEPVFHVMGFSVTGRVLNGPEGDGVPEAVVTLNNQIKVKTKADGSFRLENITTGTYTIHAQKEHLYFETVTIKIAPNTPQLADIIATGFSVCGQISIIRFPDTVKQMNKYKVVLSSQDKDKSLVTVETDAHGSFCFKAKPGTYKVQVMVPEAETRAGLTLKPQTFPLTVTNRPMMDVAFVQFLASVSGKVSCLDTCGDLLVTLQSLSRQGEKRSLQLSGKVNAMTFTFDNVLPGKYKISIMHEDWCWKNKSLEVEVLEDDMSAVEFRQTGYMLRCSLSHAITLEFYQDGNGRENVGIYNLSKGVNRFCLSKPGVYKVTPRSCHRFEQAFYTYDTSSPSILTLTAIRHHVLGTITTDKMMDVTVTIKSSIDSEPALVLGPLKSVQELRREQQLAEIEARRQEREKNGNEEGEERMTKPPVQEMVDELQGPFSYDFSYWARSGEKITVTPSSKELLFYPPSMEAVVSGESCPGKLIEIHGKAGLFLEGQIHPELEGVEIVISEKGASSPLITVFTDDKGAYSVGPLHSDLEYTVTSQKEGYVLTAVEGTIGDFKAYALAGVSFEIKAEDDQPLPGVLLSLSGGLFRSNLLTQDNGILTFSNLSPGQYYFKPMMKEFRFEPSSQMIEVQEGQNLKITITGYRTAYSCYGTVSSLNGEPEQGVAMEAVGQNDCSIYGEDTVTDEEGKFRLRGLLPGCVYHVQLKAEGNDHIERALPHHRVIEVGNNDIDDVNIIVFRQINQFDLSGNVITSSEYLPTLWVKLYKSENLDNPIQTVSLGQSLFFHFPPLLRDGENYVVLLDSTLPRSQYDYILPQVSFTAVGYHKHITLIFNPTRKLPEQDIAQGSYIALPLTLLVLLAGYNHDKLIPLLLQLTSRLQGVRALGQAASDNSGPEDAKRQAKKQKTRRT
- stoichiometry N (SEC-MALS): 2
